Data reported in patent US20240327471A1, “IL-10 INDUCING POLYPEPTIDES AND USES THEREOF” (ENTEROME S.A., priority 2021, published 2024).

Tests used:
monocytes = assay: IL-10 secretion from monocytes, NAT_29 sequence variants, co-stimulated with LPS (AlphaLISA); assay type: cell-based, human; details: 1 μM; LPS 100 ng/ml; 24 h; monocytes from six donors
Method: In order to investigate the impact of different sequence variations of NAT_29, monocytes from six donors were obtained as described in Example 3 and stimulated with 1 μM NAT_29 polypeptide (SEQ ID NO: 1) or a sequence variant thereof containing eight mutations (NAT_38; SEQ ID NO: 9), co-stimulated with 100 ng/ml LPS (NAT_38 comparison) from E. coli O111: B4 (InvivoGen, tlrl-eblps) and placed in humidified CO2 incubator at 5% CO2/37° C. for 24 h. IL-10 secretion was measured at 24 hours by AlphaLISA® on cell supernatants according to the supplier's protocol and read on an Envision plate reader (Perkin Elmer).
For comparison with NAT_29 (SEQ ID NO: 1), a polypeptide differing from the NAT_29 sequence by eight (8) amino acid positions was chosen (NAT_38; SEQ ID NO: 9). Namely, in SEQ ID NO: 9 • (i) 110 of SEQ ID NO: 1 is deleted, • (ii) D13 in SEQ ID NO: 1 is substituted with P (D13P), • (iii) a Q is added between R14 and G15 of SEQ ID NO: 1, • (iv) T16 in SEQ ID NO: 1 is substituted with Y (T16Y), • (v) K17 in SEQ ID NO: 1 is substituted with Q (K17Q), • (vi) S22 in SEQ ID NO: 1 is substituted with G (S22G), • (vii) an I is added between F25 and Y26 of SEQ ID NO: 1, and • (viii) P28 of SEQ ID NO: 1 is deleted.

[1] = test system: CD14 depleted human peripheral blood mononuclear cells (PBMCs); assay: IL-10 screening of microbiota protein library on CD14-depleted PBMCs (AlphaLISA); assay type: cell-based; details: second round of cell-free synthesis, 72 hours
Method: IL-10 screening of the microbiota protein library was performed on CD14 depleted human peripheral blood mononuclear cells (PBMCs). This cellular model was chosen to reduce the background due to cell wall components and other bacterial contaminants possibly present in the lysate of the Cell Free synthesis kit on the synthesised (but not purified) proteins.
PBMCs were isolated from buffy coats as follows: 80 ml PBS were added to 50 ml blood; 4 SepMate™-50 IVD tubes (Stemcell Technologies, Vancouver, Canada) were filled with 15 mL of Ficoll® (Ficoll® Paque Plus; Sigma-Aldrich, St. Louis, USA) per donor, then 30 ml of PBS-diluted blood were gently added. Samples were centrifuged for 20 min at 1200 g at room temperature and washed three times with PBS. To lyse the red blood cells, pellets were resuspended in Red Blood Cells Lysis buffer 1X (Miltenyi Biotec, Bergisch Gladbach, Germany) and incubated for 10 min at room temperature. Cells were then washed with MACS buffer and counted.
PBMC depletion was performed using the CD14 Microbeads kit (Miltenyi Biotec, Bergisch Gladbach, Germany) according to the supplier's protocol. […]
IL-10 secretion was measured by AlphaLISA® (IL10 (human) AlphaLISA Detection Kit; PerkinElmer, Waltham MA, USA) on the undiluted supernatants according to the supplier's protocol. Results were expressed as AlphaLISA® signal (Counts). […]

human PBMCs = assay: Dose-response of purified microbiota proteins, IL-10 secretion from total PBMCs (AlphaLISA); assay type: cell-based; details: 24 hours
Method: Before testing, the proteins were purified. In view thereof, CD14 depletion of PBMCs was not required, since the background induced by the residual contaminants present in the purified proteins is very low. Therefore, the cellular assays of Example 2 to characterize the purified proteins were performed on total PBMCs.
The selected proteins, were tested at concentrations of 0.5, 0.25, 0.1 and 0.025 μM (final concentration) on PBMCs. Cells were seeded in 384 well plates at 72,000 cells/well in a final volume of […] and stimulated with either the purified proteins (10% vol/vol) or the relative controls (positive and negative) for 24 hours in a humidified 5% CO2 atmosphere at 37° C. Samples were tested in duplicate on at least two different PBMCs donors. All the dilutions were made in PBS.
Secretion of IL-10 was measured by AlphaLISA and compared to those of PBS (negative control) and PHA at 10 μg/ml (positive control), essentially as described above.

KKGSRSCFFYLPRQGYQKGSRGCFFIYL (NAT_38)
IL-10 secretagogue activity compared with NAT_29 (monocytes): IL-10 secretagogue activity was maintained

B1: ID3166: microbiota protein, 121 amino acids, 14 kDa, SEQ ID NO: 2 (protein)
chain: AFLFTSTGVPKKAAEAAFFLYLNKGTKKGSRSCFFIYLDRGTKKGSRSCFFYLPRQGYQKGSRGCFFIYLDRGTKKGSRGCFFIYLDCEKRAGNVCIRKCRGRYLHKKTPRRYRNAEATCS
modifications: ID3166
IL-10 secretion from human PBMCs [1]: able to stimulate IL-10 secretion from human PBMCs | IL-10 secretion from PBMCs compared with PHA (positive control) (human PBMCs; 0.5, 0.25, 0.1 and 0.025 μM, PHA at 10 μg/ml): even more effective | IL-10 secretion from PBMCs at the lowest dose tested (human PBMCs; lowest dose 0.025 μM): very high effectivity even at the lowest dose tested
